The source of these data is the nanobody polyreactivity screen of Harvey et al. (2022).

This series in a line: yeast display, Sf9 membrane polyspecificity reagent, FACS + sequencing; frameworks hold sequencing errors. The essentials:
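Polyreactivity labels are assigned by the sorting gate from which each nanobody was recovered. The gates were low and high (top ~1%), set on anti-HA fluorescence for expression and streptavidin fluorescence for reagent binding. Before sorting, galactose-induced (36–48 hours) yeast display cells were stained for 1 hour at 4 °C with 10% biotinylated, detergent-solubilized Sf9 membrane reagent.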
In the case of “QGQLVESGGGLVQAGGSLRLSCAASGFSFLRYAMGWYRQAPGKERELVAAISTSGGSTSYADSVKGRFTISRDNAKNTVSLQKNSLKQEDTAVYYCNAVLYKVSISEYDYWGQGTQVTVSS”, the “polyreactivity (PSR sort gate)” value was “high polyreactivity”.

Consider “QVQLVESGGGIVQAGGSLRLSCAASGSIFHGYAMGWYRQAPGKERELVASITWNGGSTYYADSVKGRFTISRDNAKNTVYLQMNSLKPEDTAVYYCATSKWRGRGRTYDYWGQGTQVTVSS”, for which the “polyreactivity (PSR sort gate)” value is listed as “high polyreactivity”.

In the case of “QVQLVESGGGLVQAGGSLRLSCAASGLILSSNAMGWYRKAPGQERELVAAITWDGDRTYADSVKGRFTISRDNAKNTVYLQMNSLKPEDTAVYYCAARIGTGVLTGRGANSHMDYWGQGTQVTVSS”, the “polyreactivity (PSR sort gate)” value is “low polyreactivity”.

Turning to “QVQHVESGGGLVQAVVSLRLSCAATGRIISYNAMGWYRQAPGKEWELVAAISWVGGSTYYADSVKGRFTISRDIAKNTVYLQMNCLKPEDTAVYYCAKGWYRIKRNDYWGQGTQVTVSS”, the “polyreactivity (PSR sort gate)” value is “low polyreactivity”.

Take “QVQLVESGGGLVQAGGSLRLRCAASGRTFPSYTMGWYRQAPGKERELVAAITWTGGSTYYADSVKGRFTISRDNAKNTVYLQMNSLKPEDTAVYYCADYDYWGQGTQVTVSS”: the “polyreactivity (PSR sort gate)” value is on record as “low polyreactivity”.

As for “QVQLVESGGGLVHAGGSLRLSCADSGSIFGWYVMGWYRQAPGKVREFVAAISSVGSTYYADSVKGRFTISRDNAKNTVSLQMNSLKPEDTAVYYCAKLRYPYLFWDDSEYWGQGTQVTVSS”, the “polyreactivity (PSR sort gate)” value is listed as “low polyreactivity”.

With “QVQLVESGGGLVQAGGSLRLSCAASGRNFRSYAMGWYRQAPGKERELVAAIRRGGSTNYADSVKGRFTISRDNAKNTVYLQMNSLNPEDTAVYYCAARGWSYRSVGYMDYWGQGTQVTVSS”, the “polyreactivity (PSR sort gate)” value is listed as “high polyreactivity”.

As for “QVQLVESGGGLVQAGGSLRLSCAASGRTFGVNAMGWYRQAPGKEREFVAAITWSGGSTYYADSVKGRFTISRDNAKNTVYLQMISLKPEDTAVYYCAAVQWRYDGSFTGYGYWGQGTQVTVSS”, the “polyreactivity (PSR sort gate)” value was “low polyreactivity”.

As for “QVQLVESGGGLVQAGGSLRLSCAASGNTIYQYAMGWYRQAPGKERELVAAISSSVDRTYYADSVKGRFTISRDNAKNTVYLQMNSLKPEDTAVYYCAAASGGRWRVGYWGQGTQVTVSS”, the “polyreactivity (PSR sort gate)” value is given as “high polyreactivity”.

Turning to “QVQLVESGGGLVQAGGSLRLSCAATGRIFNYYAMGWYRQAPGKERELVAAISNGGSTYYADSVKGRFTISRDNAKNTVYLQMNSLKPEDTAVYYCNAAARNGYARRVYYWGQGTQVTVSS”, the “polyreactivity (PSR sort gate)” value is listed as “high polyreactivity”.

“QVQLVESGGGLVQAGGSLRLSCAASGFIFRKNAMGWYRQAPGKERELVAANSQSGGSTYYADSVKGRFTISRDNAKNTVYLQMNSLKPEDTAVYYCAARYDLPNWVGGREYNYWGQGTQVTVSS”: the “polyreactivity (PSR sort gate)” value was “high polyreactivity”.

Consider “QEQLQERGGGLVQAGGSLRLSCAASGNISVTGFMGWYRQAPGKERELVASIGIGGTTYYADSVKGRFSMSRDNAKNTVYLKMNRLKPEDTAVYYCAVRWYDHVSRRGIGYYWGKGTQVTVSS”, for which the “polyreactivity (PSR sort gate)” value is listed as “low polyreactivity”.

“QVQLVESGGGLVQAGGSLRLSCAASGSIYVLYAMGWYRQAPGKERELVAAISRGVGGKNYADSVKGRFTISRDNAKNTVYLQMNSLIPEDTAVYYCAAQTLRWSHYYYWGQGTQVTVSS”: the “polyreactivity (PSR sort gate)” value was “high polyreactivity”.

As to “QVQLVESGGGLVQAGGSLRLSCAASGFTFYSYVMGWYRQAPGKERELVAAIDPSGGRTYYADSVKGRFTISRDYAKNTVYLQMNSLKPVDTAVYYCAVPRVDYWGQGTQVTVSS”, the “polyreactivity (PSR sort gate)” value is reported as “high polyreactivity”.

Turning to “QVHLVESVVCLVQAGGSLALSCASYGSIFRYYALGWYIQGTGKESELVAGITWGCRRTFYADSEKGRFTISRHNAKNTFYIQMNILKPEDTAVCYCAPRWFWKAYRFYYWGQGTQLTVSS”, the “polyreactivity (PSR sort gate)” value is listed as “high polyreactivity”.

For “QVQLVESGGGLVQAGGSLRLSCAASGRIFTQYAMGWYRQAPGKERELVAAINASDGSTYYADSVKGRFTISRDNAKNTVYLQMNSLKPEDTAVYYCAGYAYNAIEYGYWGQGTQVTVSS”, the “polyreactivity (PSR sort gate)” value was “low polyreactivity”.

For the sequence “QVQLVDSCGGLVQAGGSLRLSCAASGSISYYYAMGWYRQAPGKERELVAAITRTGTTNYADSVKWRFTISRDNAKNTVFLQMNSLKPEDTAVYYCAKRSTGRLQSYNYWGQGTQVTVSS”, the “polyreactivity (PSR sort gate)” value was “low polyreactivity”.

With “QVQLVESGGGLVQAGGSLRLSCAASGSIFFWYAMGWYRQAPGKERELVAAISRGGRTTYADSVKGRFTISRDNAKNTVYLQMNSLKPEDTAVYYCAAYRYFTYFYYSDYPYNYWGQGTQVTVSS”, the “polyreactivity (PSR sort gate)” value is “high polyreactivity”.

As for “QVQLVESGGGLVQAGGSLRLSCAASGSIFYANTLGWYRQAPGTERELVAAINWSGGRTYYADSVKGRFTISRDNAKNTVYLQMNSLKPEDTAVYYCAASATYLYKYPVWGYDYWGQGTQVTVSS”, the “polyreactivity (PSR sort gate)” value was “high polyreactivity”.

As for “QVQLVESGGGLVQAGGSLRLSCAASGSIFSTYAMGWYRQAPGKERELVAAINSGDSTSYADSVKGRFTISRDNAKNTVYLQMNSLKPEDTAVYYCAAKTGGYWYLRRTGRYESWGQGTQVTVSS”, the “polyreactivity (PSR sort gate)” value is recorded as “low polyreactivity”.

In the case of “QVQLVESGGGLVQAGGSLRLSCAASGRTFRENAMGWYRPAPGKERELVAAISWRAGSTYYADSVKGRFTISRDNAKNTVYLQMNSLKPEDTAVYYCAAKYTVSFYLWGTFNYWGQGTQVTVSS”, the “polyreactivity (PSR sort gate)” value is given as “high polyreactivity”.

Turning to “QVQLVESGGGLVQAGGSLRLSCAASGSIIPLYAMGWYRQAPGKERELVATINRRTGSTYADSVKGRFTISRDNAKNTVYLQMNSLKPEDTAVYYCNAADNYVRFYKTRIYNYWGQGTQVTVSS”, the “polyreactivity (PSR sort gate)” value is on record as “high polyreactivity”.

Turning to “QVQLVESAGGLVQAGGSLRLSCAASGSIFPTNTMGWYRQAPGKERELVATIRKSSGRTYYADSVKGRFTISRDNAKNTVYLQMNSLKPEDTAVYYCNARRYSGALRYDYWGQGTQVTVSS”, the “polyreactivity (PSR sort gate)” value is “high polyreactivity”.

On to “QVQLVESGGGLVQAGGSLRLSCAATGRTFTVNPMGWYIQAPGKERELVAAITGSGGSTYYADSVKGRFTISRDNGKNTVYLQMNSLKPEDTAGYYCAADVNWFRWWSGSVELDYWGQGTQVTVTS”, for which the “polyreactivity (PSR sort gate)” value is listed as “low polyreactivity”.

Regarding “QVQLVDSGGGLVQAGGSLRLSCAASGSIFFIYAMGWYRQATGKERELVATITSGGSTYYADSVKGRFTISRDNAKNTVYLQMNSLKPEDTAVYYCAKYFVYVGYGRYDYWGQCTQVTVSS”, the “polyreactivity (PSR sort gate)” value is given as “low polyreactivity”.

“QVQLVESGGGLVQAGGSLRLSCGASGRIISKYAMGWYRQAPGKERELVAAITSRGGNTYYAVSVKGRFTISRDNAKNTVYFQMYSLNPEDTAVYSCNTSPQSRYVFGRVDSWGQGTQVTVSS”: the “polyreactivity (PSR sort gate)” value is “high polyreactivity”.

With “QVQLVESGGGLVQAGGSLRLSCAASGFTFRYYAMGWYRQAPGKERELVAAISWSGASTYYADSVKGRFTISRDNAKNTVYLQMNSLKPEDTAVYYCAADIPGTYYYWGQGTEVTVSS”, the “polyreactivity (PSR sort gate)” value is given as “high polyreactivity”.

Take “QVQLVESGGGLVQAGGSLRLRCAASGRTFSAYAMGWYRQAPGKERELVAAISRRGGSTYYADSVKWRFTISRDNAKNTVYFQMNSLKPSDTAVYYCAADVYKQYGFYYWGQVTQVTVSS”: the “polyreactivity (PSR sort gate)” value is “high polyreactivity”.

Turning to “QVQLVESGGGLVQAGGSLRLSCAASGSTIYRYAMGGYRQAPGKERELVAAITWSGGSTYYADSVKGRFTISRDNAKNTVYLQMNSLKPADTAVYYCNAVARYYYKDQTIIHSPREDYWGQGTQVTVSS”, the “polyreactivity (PSR sort gate)” value was “low polyreactivity”.

For “QVQLVESGGGLVQAGGSLRLSSAASGRTFDFYAMGWYRQAPGKERELVAAITGSDTSTYYADSVKGRFTISRDNAKNTVYLQMNSLKPEDTAVYYCAADGQWAYTVDPYVIYYRLDYWGQGTQVTVSS”, the “polyreactivity (PSR sort gate)” value is “low polyreactivity”.

Regarding “QVQLVESGGGLVQAGRSLRLSCPASGRTVVYNSLGWYRQAPGKETEFVAAITRSRDSTYYADSVKGRFTISRDNASNPVYLEMNSLKPEDSAAYYCNAVSKRYWLMDYWGQGTQVTVSS”, the “polyreactivity (PSR sort gate)” value is reported as “high polyreactivity”.

On to “QVQLVESGGGLVQAGGSLRLSCAASGRTFYSYAMGWYRQAPGKERELVAAISASGGRTYYADSVKGRFTISRDNAKNTVYLQMNSLKPEDTAVYYCAAYPWYRMWGQGTQVTVSS”, for which the “polyreactivity (PSR sort gate)” value is given as “high polyreactivity”.

For “QVQLVESGGGLVQAGGSLRLSCAASGRIFYRNAMGWYRQAPGKERELVAAISSGSGTYYADSVKGRFTISRDNAKNTVYLQMNSLKPEDTAVYYCAARARSRDYYWGQGTQVTVSS”, the “polyreactivity (PSR sort gate)” value was “high polyreactivity”.

“QVQLVESGGGLVQAGGSLRLSCAASGRIFVGYYTMGWYRQAPGKERELVASITWGGGRTYYADSVKGRFTISRDNAKNTVYLQMNSLKPEDTAVYYCAAGYPANYYYLGQGTQVTVSS”: the “polyreactivity (PSR sort gate)” value was “high polyreactivity”.

As for “QVQLVESGGGLVQAGGSLRLSCAASGSIFFPYAMGWYRKAPGKERGLVAAISWRGGITYYADSVKGRFTISRDNAKNTVYLQMNSLKPADTAVYYCAADGPYTGDGALDYWGQGTQVTVSS”, the “polyreactivity (PSR sort gate)” value is given as “high polyreactivity”.

For the sequence “QFQLVESGGGLDQAVGSLRLSCAASGSIFYPNVMGGYREAPGKEREMVAAIRTSGGSTYYADSVQGRFTISRETAKNTVYLQMNSLKPEDTAVYYCAAKRTGNGYPRSGYYRYEYWGHGTQVTVSS”, the “polyreactivity (PSR sort gate)” value was “high polyreactivity”.

Turning to “QVQLVESGGGLVQAGGSLRLSCAASGSIFTPYAMGWYRQAPGKERELVAAISRSGGSTYYADSVKGRFTISRDNAKNTVYLQMNSLKPEDTAVYYCAVVVYDIYGYESDYWGQGTQVTVSS”, the “polyreactivity (PSR sort gate)” value is given as “low polyreactivity”.

Regarding “QVQLEESGGGLVQAGGSLRLSCDASGFTFAYYAMGWYRPAPGKEREFVAAITKGGGSTNYADSVKGRFTISRDNAKNTVYLQMNSLKPEDTAVYYCNADYFVWYIGRVFSRYGYWGLGTQVTVSS”, the “polyreactivity (PSR sort gate)” value was “low polyreactivity”.

Take “QVQLVESGGGLVQAGGSLRLSCAASGSIFFFNAMGWYRQAPGKEREFVAAITSSSGRTYYADSVKGRFTISRDNAKNTVYLQMNSLKPEDTAVYYCAAEGLDEGDYWGQGTQVTVSS”: the “polyreactivity (PSR sort gate)” value was “low polyreactivity”.

Turning to “QVQLVESGGGLVQAGGSLRLSCAASGIIFTFNARGWDRQAPGKERELVASISITGDTYYADSVKGRFTISRDNAKNTVYLQMNSLKPEDTAVYYCAAEYYFYSRHWYISYDYWGQGTQVTVSS”, the “polyreactivity (PSR sort gate)” value is on record as “low polyreactivity”.

Regarding “QVQLVESGGGLVQAGGSLRLSCAASGRTFTHYAMGWYRQAPGKERELVASISDGGRTHYADSVKGRFTISRDNAKNTVYLQMNSLKPEDTAVYYCATDRYPTRRYDYWGQGTQVTVSS”, the “polyreactivity (PSR sort gate)” value is reported as “low polyreactivity”.
